Measured values as given in patent US20150111231A1.

How the values were obtained:
[1] = target: human sAPPβ (MESO SCALE DISCOVERY) (human) (UniProt P05067); test: SPR (ProteOn, GLM chip), 5H10 immobilised, sAPPβ as analyte
[2] = target: human sAPPβ (MESO SCALE DISCOVERY) (human) (UniProt P05067); test: SPR (ProteOn), 5H10 immobilized on GLM chip, sAPPβ as analyte at 1000, 250, 62.5, 15.6, 3.91 nM

Chain of human sAPPβ (MESO SCALE DISCOVERY) (human) (P05067 18-671): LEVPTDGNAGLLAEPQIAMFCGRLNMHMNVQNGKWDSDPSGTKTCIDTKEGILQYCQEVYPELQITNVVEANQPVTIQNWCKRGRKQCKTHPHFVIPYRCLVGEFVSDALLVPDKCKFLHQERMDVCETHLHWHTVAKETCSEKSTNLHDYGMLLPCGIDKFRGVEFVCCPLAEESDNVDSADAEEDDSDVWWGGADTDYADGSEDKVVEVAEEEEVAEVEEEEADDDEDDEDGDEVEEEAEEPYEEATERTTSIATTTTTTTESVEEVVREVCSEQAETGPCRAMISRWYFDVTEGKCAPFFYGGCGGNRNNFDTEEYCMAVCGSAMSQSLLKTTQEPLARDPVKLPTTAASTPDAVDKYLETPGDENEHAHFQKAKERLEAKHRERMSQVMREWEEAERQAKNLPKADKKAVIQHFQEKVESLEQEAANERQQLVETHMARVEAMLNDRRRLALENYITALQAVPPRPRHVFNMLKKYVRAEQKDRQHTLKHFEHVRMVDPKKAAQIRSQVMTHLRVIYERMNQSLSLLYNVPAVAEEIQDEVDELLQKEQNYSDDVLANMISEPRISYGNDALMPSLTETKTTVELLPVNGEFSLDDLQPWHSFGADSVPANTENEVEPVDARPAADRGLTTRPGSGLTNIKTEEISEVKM

koff [1]: 5.62e-05 s⁻¹
kon [1]: 90800 M⁻¹ s⁻¹
Kd [2]: 0.62 nM
B1: anti-internal structure antibody 5H10 (antibody, IgG1, V domains shown)
VH: QVQLQQSGTELAKPGASVKMSCKASGYTFIDYWMHWIKQSPGQGLEWIGFINPRSGSTTYNQKFRDKATLTVDTSSSTAYMQLTSLTSEDSAVYYCTRPDFDYFDYWGQGTTLTVSS
VL: DVLMTQTPLSLPVSLGDHASISCRSSQSIVQSNGNTYLEWYLQKPGQSPKLLIYKVSNRFSGVPDRFSGSGSGTDFTLKISSVEAEDLGIYYCFQASHVPLTFGAGTKLELKR
